Substitutions are numbered along the chain they refer to.
B1: LM609 grafted antibody Fab (parent molecule) (Fab, V domains shown)
VH: QVQLVESGGGVVQPGRSLRLSCAASGFTFSSYDMSWVRQAPGKGLEWVAKVSSGGGSTYYLDTVQGRFTISRDNSKNTLYLQMNSLRAEDTAVYYCARHNYGSFAYWGQGTTVTVSS
VL: EIVLTQSPATLSLSPGERATLSCQASQSISNHLHWYQQRPGQAPRLLIRYRSQSISGIPARFSGSGSGTDFTLTISSLEPEDFAVYYCQQSGSWPHTFGGGTKVEIK
notes: Fab expressed from M13 phage vector in E. coli, purified on protein A; also called LM609 grafted Fab; wild type
B2: LM609 grafted antibody combinatorial clone C59 (Fab, V domains shown)
VH: B1 VH with L61P, Y106D
VL: B1 VL with H32F
notes: Fab
B3: LM609 grafted antibody variant S102 (Fab, V domains shown)
VH: B1 VH with Y106S
VL: B1 VL
notes: Fab; also called clone S102

Columns and labels:
[1] = molecular target: integrin αvβ3 on cells (M21 human melanoma cells; human umbilical vein endothelial cells) (human) (UniProt P06756); assay: cell-based or functional assay
[2] = molecular target: T1, integrin αvβ3 (human vitronectin receptor), purified from human placenta (human, UniProt P06756 31-1048; P05106 27-788); assay: ELISA titration of bacterial cell lysate containing Fab on immobilized αvβ3, detection with goat anti-human kappa-alkaline phosphatase
T1 construct: mature; coated on ELISA plates or immobilized on a BIAcore chip; Biotinylated in capture lift and capture ELISA screens; also called avb3; αvβ3 receptor

[3] = molecular target: T1, integrin αvβ3 (human vitronectin …); assay: ELISA on immobilized αvβ3 incubated with 0.1 µg/ml biotinylated fibrinogen (the blocked ligand) and various concentrations of Fab for 3 h at 37 °C; bound fibrinogen detected with NeutrAvidin-alkaline phosphatase

T1 sequence (P06756 31-1048, form in doubt, chain 1 of 2): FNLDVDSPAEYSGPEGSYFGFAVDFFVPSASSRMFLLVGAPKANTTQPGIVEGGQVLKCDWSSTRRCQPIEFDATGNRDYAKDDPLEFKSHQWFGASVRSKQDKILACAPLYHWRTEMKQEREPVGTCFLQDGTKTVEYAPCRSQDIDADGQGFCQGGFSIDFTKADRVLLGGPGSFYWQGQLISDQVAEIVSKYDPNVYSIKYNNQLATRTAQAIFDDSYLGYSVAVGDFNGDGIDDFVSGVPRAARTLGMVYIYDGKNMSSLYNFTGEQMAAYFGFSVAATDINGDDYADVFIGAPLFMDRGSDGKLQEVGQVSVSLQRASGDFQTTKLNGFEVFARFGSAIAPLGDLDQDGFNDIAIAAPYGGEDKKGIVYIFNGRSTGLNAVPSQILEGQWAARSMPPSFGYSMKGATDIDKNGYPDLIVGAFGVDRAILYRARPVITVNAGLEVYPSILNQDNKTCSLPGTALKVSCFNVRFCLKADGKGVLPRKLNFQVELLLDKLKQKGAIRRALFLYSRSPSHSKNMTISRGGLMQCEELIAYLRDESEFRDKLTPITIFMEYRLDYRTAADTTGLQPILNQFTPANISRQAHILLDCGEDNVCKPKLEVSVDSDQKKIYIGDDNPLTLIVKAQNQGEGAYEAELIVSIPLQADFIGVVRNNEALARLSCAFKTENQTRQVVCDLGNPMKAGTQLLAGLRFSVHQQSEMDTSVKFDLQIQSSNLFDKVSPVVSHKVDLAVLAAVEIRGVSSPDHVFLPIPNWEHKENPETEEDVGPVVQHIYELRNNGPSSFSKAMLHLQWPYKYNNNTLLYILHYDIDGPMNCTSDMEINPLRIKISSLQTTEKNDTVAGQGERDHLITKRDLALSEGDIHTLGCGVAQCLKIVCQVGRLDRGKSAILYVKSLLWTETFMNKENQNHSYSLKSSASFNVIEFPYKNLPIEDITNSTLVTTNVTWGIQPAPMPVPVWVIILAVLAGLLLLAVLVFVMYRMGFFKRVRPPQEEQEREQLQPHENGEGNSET
T1 sequence (P05106 27-788, form in doubt, chain 2 of 2): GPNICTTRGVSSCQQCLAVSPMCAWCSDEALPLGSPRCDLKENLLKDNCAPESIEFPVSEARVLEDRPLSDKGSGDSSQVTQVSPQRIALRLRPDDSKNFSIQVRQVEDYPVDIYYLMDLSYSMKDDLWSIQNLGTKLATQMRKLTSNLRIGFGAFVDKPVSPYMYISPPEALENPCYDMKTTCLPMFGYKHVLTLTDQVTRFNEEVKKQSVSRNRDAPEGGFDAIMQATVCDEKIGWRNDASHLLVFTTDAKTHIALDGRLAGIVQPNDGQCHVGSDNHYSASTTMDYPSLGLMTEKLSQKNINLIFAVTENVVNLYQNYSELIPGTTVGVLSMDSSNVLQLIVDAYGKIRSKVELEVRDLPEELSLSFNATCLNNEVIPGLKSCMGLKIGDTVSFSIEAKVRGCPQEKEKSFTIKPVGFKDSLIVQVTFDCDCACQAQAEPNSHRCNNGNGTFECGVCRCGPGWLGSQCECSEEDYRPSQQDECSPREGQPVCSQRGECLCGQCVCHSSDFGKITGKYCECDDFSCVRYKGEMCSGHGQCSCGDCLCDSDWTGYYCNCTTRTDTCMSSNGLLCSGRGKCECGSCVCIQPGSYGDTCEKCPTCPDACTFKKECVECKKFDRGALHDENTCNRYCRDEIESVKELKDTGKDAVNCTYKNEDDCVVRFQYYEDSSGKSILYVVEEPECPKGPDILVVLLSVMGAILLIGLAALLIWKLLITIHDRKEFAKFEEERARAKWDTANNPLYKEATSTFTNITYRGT
Chain of integrin αvβ3 on cells (M21 human melanoma cells; human umbilical vein endothelial cells) (human) (P06756 31-1048, chain 1 of 2): as the sequence (P06756 31-1048, form in doubt, chain 1 of 2) above
Chain of integrin αvβ3 on cells (M21 human melanoma cells; human umbilical vein endothelial cells) (human) (P05106 27-788, chain 2 of 2, further chain): as the sequence (P05106 27-788, form in doubt, chain 2 of 2) above

| Molecule | EC50 (read off the curve) [2] [µg/mL] | also measured |
| --- | --- | --- |
| monoclonal antibody LM609 (murine IgG) | – | decrease in vitronectin-induced migration of human umbilical vein endothelial cells (transwell), antibody at 5 µg/ml [1]: 60% |
| B1 | ~0.4 | – |
| B2 | – | IC50 (read off the curve) [3]: ~0.1 µg/mL |
| B3 | ~0.1 | – |

Reference: patent US7422745 (IXSYS, dated 2008)
